Target: TGFβ1 (UniProt P01137 279-390)
Test: radioligand plate binding; 89Zr-labeled

Chain of TGFβ1 (P01137 279-390): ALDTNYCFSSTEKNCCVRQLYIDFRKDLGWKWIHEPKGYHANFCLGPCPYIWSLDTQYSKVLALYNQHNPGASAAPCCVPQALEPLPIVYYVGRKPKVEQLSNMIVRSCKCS

B1: Fresolimumab (antibody, V domains shown)
VH: QVQLVQSGAEVKKPGSSVKVSCKASGYTFSSNVISWVRQAPGQGLEWMGGVIPIVDIANYAQRFKGRVTITADESTSTTYMELSSLRSEDTAVYYCASTLGLVLDAMDYWGQGTLVTVSS
VL: ETVLTQSPGTLSLSPGERATLSCRASQSLGSSYLAWYQQKPGQAPRLLIYGASSRAPGIPDRFSGSGSGTDFTLTISRLEPEDFAVYYCQQYADSPITFGQGTRLEIKR
B1 was tested, and the Kd was 66 nM.

Reference: patent US20260263645A1 (published 2026)
